Results from article PMC11372445 (Cell Reports, 2024).
Each block holds one binder with its values, some of them ahead of it.

Tests used:
[1] = target: K6 diUb phosphorylated on S65 of the proximal Ub (UniProt P0CG47, K6R); assay: pull-down
[2] = target: K6 diUb phosphorylated on S65 of the distal Ub (UniProt P0CG47, K6R); assay: pull-down
[3] = target: K6 diUb phosphorylated on S65 of both Ub molecules (UniProt P0CG47, K6R); assay: pull-down
[4] = target: M1-linked diubiquitin (UniProt P0CG47); assay: pull-down
[5] = target: M1-linked diubiquitin (UniProt P0CG47); assay: crystal structure
[6] = target: the molecule itself; assay: crystal structure
[7] = target: NEMO UBAN (aa 257–364) (human, UniProt Q9Y6K9 257-364); assay: pull-down

binding result [1]: binds
binding result [2]: binds
binding result [3]: binds
B1: GST-tagged TAB2 NZF (aa 585–693) (domain or fragment)
chain: QIPSLEEMQQLRSCNRQLQIDIDCLTKEIDLFQARGPHFNPSAIHNFYDNIGFVGPVPPKPKDQRSIIKTPKTQDTEDDEGAQWNCTACTFLNHPALIRCEQCEMPRHF

binding result [4]: binds
B2: NEMO UBAN (257–364) K285C/C347S chemically ubiquitinated on K285C with Ub G76C (other)
chain 1: GMQLEDLKQQLQQAEEALVAKQEVIDKLCEEAEQHKIVMETVPVLKAQADIYKADFQAERQAREKLAEKKELLQEQLEQLQREYSKLKASSQESARIEDMRKRHVEVS
chain 2: […]

binding result [5]: binds
Binder: RGRWACQSCTFENEAAAVLCSICERPRLA (domain or fragment) [HOIP NZF1 (aa 351–379), as crystallised]

B3: OPTN UBAN (aa 419–512) C472S, S473E (domain or fragment)
chain: DRAVLKELSEKLELAEKALASKQLQMDEMKQTIAKQEEDLETMTILRAQMEVYSEDFHAERAAREKIHEEKEQLALQLAVLLKENDAFEDGGRQ
binding result [6]: binds

binding result [7]: binds
Binder: RGRWACQSCTFENEAAAVLCSICERPRLA (domain or fragment) [His6-SUMO-HOIP NZF1 (aa 351–379)]
